Our source for the EC50 (read off the curve) values is US20200283523A1.

In the assay the target is C1Q (UniProt P02745). Briefly: ELISA, antibody coated on the plate, C1q titrated (axis [C1q] nM), anti-human C1q-HRP detection.
Sequence of C1Q (P02745 23-245 limits assumed, chain 1 of 3): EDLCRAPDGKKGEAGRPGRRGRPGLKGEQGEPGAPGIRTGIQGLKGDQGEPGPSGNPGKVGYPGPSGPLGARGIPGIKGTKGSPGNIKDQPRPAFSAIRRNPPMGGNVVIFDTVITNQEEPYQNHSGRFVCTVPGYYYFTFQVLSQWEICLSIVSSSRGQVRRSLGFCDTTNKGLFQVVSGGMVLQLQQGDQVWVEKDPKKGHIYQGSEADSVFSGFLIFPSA
Sequence of C1Q (P02746 28-253 limits assumed, chain 2 of 3, further chain): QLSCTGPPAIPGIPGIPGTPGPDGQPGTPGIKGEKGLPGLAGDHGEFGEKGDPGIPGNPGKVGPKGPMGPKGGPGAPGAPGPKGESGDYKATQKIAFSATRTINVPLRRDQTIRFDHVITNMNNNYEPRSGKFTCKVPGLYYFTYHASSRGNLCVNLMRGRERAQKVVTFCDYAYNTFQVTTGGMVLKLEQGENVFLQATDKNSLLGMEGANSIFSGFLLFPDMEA
Sequence of C1Q (P02747 29-245 limits assumed, chain 3 of 3, further chain): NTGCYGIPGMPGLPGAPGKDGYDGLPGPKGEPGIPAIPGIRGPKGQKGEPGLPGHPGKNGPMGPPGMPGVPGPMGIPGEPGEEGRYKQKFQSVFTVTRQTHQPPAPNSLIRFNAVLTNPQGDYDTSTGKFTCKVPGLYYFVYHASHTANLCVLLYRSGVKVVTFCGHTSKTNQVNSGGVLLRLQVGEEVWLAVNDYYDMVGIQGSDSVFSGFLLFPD

Consider control human IgG1 antibody, for which the EC50 (read off the curve) worked out at 30 nM.
